According to US20240261333A1 (published 2024):
One block for each binder: values may come before it.

Tests used:
RPS3A = RPS3A (human, UniProt P61247 2-264); experiment: co-IP/MS, anti-FLAG IP of N-FLAG B3GNT2 cell lysate
Description: (§1) Cells were plated in 10-cm cell culture dishes and grown to 60-80% confluency. For each condition, two biological replicates were harvested for co-IP. Cells were washed with PBS and 4 mL of lysis buffer (20 mM HEPES, 1% Triton X-100, 150 mM NaCl, 1 mM EDTA, and 10% glycerol) containing protease inhibitor cocktail was added. Cells were scraped and lysate was incubated at 4° C. under rotary agitation for 1 h. Lysate was centrifuged at 14,000×g for 10 min at 4° C. Supernatant was transferred to a new tube and an aliquot was taken as the input. […] For Western blots, 10 μg/mL Chicken Anti-FLAG (Aves labs ET-DY100) and IgY control (R&D Systems AB-101-C) antibodies were biotinylated (Thermo Fisher Scientific 90407) and added to the respective conditions. Lysates with antibodies were incubated at 4° C. under rotary agitation overnight. For each mL of lysate, 50 μL of Pierce Protein A/G Magnetic Beads (Mass spectrometry; Thermo Fisher Scientific 88803) or Pierce Streptavidin Magnetic Beads (Western blot; Thermo Fisher Scientific 88817) was washed twice with lysis buffer. Lysates with antibodies were added to the beads and incubated at 4° C. under rotary agitation for 4 h. Beads were washed with lysis buffer 3 times and resuspended in lysis buffer for storage.
(§2) Magnetic beads were resuspended in 100 mM Tris pH 7.8, reduced, alkylated and digested with trypsin at 37° ° C. overnight. This solution was subjected to solid phase extraction to concentrate the peptides and remove unwanted reagents followed by injection onto a Shimadzu HPLC with fraction collector. Eight fractions were collected and after concentration were injected on a Waters NanoAcquity HPLC equipped with a self-packed Aeris 3 μm C18 analytical column 0.075 mm by 20 cm, (Phenomenex). Peptides were eluted using standard reverse-phase gradients. The effluent from the column was analyzed using a Thermo Orbitrap Elite mass spectrometer (nanospray configuration) operated in a data dependent manner for 54 minutes. The resulting fragmentation spectra were correlated against the known database using Proteome Discover 1.4 (Thermo Fisher Scientific).

RPL30 = RPL30 (human, UniProt P62888 1-115); experiment: as above
Description: as §1, §2

FKBP10 = biological target: T1, FKBP10 (human, UniProt Q96AY3 27-582); experiment: as above
T1 construct: also called NP_068758.3 (+1)
Description: as §1, §2

RPS15 = RPS15 (human, UniProt P62841 2-145); experiment: as above
Description: as §1, §2

RPS5 = RPS5 (human, UniProt P46782 1-204); experiment: as above
Description: as §1, §2

RPL14 = RPL14 (human, UniProt P50914 2-215); experiment: as above
Description: as §1, §2

PRDX1 = biological target: T2, PRDX1 (human, UniProt Q06830 2-199); experiment: as above
T2 construct: also called NP_859048.1
T2 sequence (looked up): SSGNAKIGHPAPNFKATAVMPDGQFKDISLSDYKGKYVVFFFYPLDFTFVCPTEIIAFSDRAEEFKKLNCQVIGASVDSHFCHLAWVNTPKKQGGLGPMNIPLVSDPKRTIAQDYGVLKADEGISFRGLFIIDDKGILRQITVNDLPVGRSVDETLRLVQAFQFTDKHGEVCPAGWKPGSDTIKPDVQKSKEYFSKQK
Description: as §1, §2

RPL24 = RPL24 (human, UniProt P83731 1-157); experiment: as above
Description: as §1, §2

PRDX2 = biological target: T3, PRDX2 (human, UniProt P32119 2-198); experiment: as above
T3 construct: also called NP_005800.3
T3 sequence (looked up): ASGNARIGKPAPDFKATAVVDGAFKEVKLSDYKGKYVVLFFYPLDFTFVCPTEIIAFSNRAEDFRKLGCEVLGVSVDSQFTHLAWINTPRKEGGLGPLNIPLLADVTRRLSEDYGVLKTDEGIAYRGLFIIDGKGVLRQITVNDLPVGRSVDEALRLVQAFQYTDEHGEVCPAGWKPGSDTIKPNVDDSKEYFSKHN
Description: as §1, §2

RPS9 = RPS9 (human, UniProt P46781 2-194); experiment: as above
Description: as §1, §2

PSMB4 = biological target: T4, PSMB4 (human, UniProt P28070 46-264); experiment: anti-FLAG co-IP from lysate of C-FLAG B3GNT2 cells, mass spectrometry
T4 construct: also called NP_002787.2
Description: as §1, §2

PSMC2 = biological target: T5, PSMC2 (human, UniProt P35998 2-433); experiment: as above
T5 construct: also called NP_002794.1
T5 sequence (looked up): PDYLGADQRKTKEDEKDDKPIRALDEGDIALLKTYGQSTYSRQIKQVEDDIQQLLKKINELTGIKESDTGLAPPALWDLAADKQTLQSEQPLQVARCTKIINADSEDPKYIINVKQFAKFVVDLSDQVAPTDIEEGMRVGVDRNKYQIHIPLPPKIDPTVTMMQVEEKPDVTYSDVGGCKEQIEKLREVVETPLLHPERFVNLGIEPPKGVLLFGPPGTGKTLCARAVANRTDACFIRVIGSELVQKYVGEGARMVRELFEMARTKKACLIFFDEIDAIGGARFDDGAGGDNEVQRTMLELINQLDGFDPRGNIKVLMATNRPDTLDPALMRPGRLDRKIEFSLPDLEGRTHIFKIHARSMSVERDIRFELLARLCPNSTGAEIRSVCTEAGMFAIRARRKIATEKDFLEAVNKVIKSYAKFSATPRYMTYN
Description: as §1, §2

ERP29 = biological target: T6, ERP29 (human, UniProt P30040 33-261); experiment: as above
T6 construct: also called NP_006808.1
Description: as §1, §2

PSMA5 = biological target: T7, PSMA5 (human, UniProt P28066 1-241); experiment: as above
T7 construct: also called NP_002781.2
Description: as §1, §2

CAPZA1 = CAPZA1 (human, UniProt P52907 2-286); experiment: co-IP/MS, anti-FLAG IP of C-FLAG B3GNT2 cell lysate
Description: as §1, §2

RPS7 = RPS7 (human, UniProt P62081 1-194); experiment: as above
Description: as §1, §2

LRP1 = biological target: T8, LRP1 (human, UniProt Q07954 20-4544, limits assumed); experiment: as above
T8 construct: also called NP_002323.2 (+1)
Description: as §1, §2

PIP = biological target: T9, PIP (human, UniProt P12273 29-146); experiment: as above
T9 construct: also called NP_002643.1
T9 sequence (looked up): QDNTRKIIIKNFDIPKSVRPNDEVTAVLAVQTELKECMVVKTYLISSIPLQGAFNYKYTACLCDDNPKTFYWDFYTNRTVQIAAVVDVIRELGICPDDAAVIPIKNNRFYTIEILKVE
Description: as §1, §2

PCBP1 = biological target: T10, PCBP1 (human, UniProt Q15365 1-356); experiment: as above
T10 construct: also called NP_006187.2
Description: as §1, §2

TGM3 = biological target: T11, TGM3 (human, UniProt Q08188 2-693, limits assumed); experiment: as above
T11 construct: also called NP_003236.3
T11 sequence (looked up): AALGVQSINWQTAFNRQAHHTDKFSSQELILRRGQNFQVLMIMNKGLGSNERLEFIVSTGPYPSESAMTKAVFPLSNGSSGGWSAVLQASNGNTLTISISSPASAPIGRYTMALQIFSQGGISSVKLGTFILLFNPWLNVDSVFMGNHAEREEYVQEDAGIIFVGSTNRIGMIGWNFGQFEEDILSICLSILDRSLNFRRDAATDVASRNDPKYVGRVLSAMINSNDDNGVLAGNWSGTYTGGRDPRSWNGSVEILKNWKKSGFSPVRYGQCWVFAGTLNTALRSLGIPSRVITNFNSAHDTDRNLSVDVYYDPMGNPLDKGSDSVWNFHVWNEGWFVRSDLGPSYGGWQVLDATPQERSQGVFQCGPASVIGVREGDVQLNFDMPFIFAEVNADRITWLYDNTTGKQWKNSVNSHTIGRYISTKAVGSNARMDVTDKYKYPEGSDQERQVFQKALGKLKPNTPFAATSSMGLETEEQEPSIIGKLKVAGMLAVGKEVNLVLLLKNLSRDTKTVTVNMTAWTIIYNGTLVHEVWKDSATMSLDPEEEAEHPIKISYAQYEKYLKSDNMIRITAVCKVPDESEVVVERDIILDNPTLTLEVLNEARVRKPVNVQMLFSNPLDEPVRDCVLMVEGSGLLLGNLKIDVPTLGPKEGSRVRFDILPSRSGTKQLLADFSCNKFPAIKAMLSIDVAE
Description: as §1, §2

RPS12 = RPS12 (human, UniProt P25398 2-132); experiment: as above
Description: as §1, §2

T7 sequence (P28066 whole entry): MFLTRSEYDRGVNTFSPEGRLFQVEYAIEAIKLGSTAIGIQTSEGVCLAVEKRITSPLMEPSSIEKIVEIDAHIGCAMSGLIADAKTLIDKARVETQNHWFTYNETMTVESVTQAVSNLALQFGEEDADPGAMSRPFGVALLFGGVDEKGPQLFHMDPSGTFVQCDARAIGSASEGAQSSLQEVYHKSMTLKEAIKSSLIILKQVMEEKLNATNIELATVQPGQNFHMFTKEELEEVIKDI
T8 sequence (Q07954 20-4544 limits assumed): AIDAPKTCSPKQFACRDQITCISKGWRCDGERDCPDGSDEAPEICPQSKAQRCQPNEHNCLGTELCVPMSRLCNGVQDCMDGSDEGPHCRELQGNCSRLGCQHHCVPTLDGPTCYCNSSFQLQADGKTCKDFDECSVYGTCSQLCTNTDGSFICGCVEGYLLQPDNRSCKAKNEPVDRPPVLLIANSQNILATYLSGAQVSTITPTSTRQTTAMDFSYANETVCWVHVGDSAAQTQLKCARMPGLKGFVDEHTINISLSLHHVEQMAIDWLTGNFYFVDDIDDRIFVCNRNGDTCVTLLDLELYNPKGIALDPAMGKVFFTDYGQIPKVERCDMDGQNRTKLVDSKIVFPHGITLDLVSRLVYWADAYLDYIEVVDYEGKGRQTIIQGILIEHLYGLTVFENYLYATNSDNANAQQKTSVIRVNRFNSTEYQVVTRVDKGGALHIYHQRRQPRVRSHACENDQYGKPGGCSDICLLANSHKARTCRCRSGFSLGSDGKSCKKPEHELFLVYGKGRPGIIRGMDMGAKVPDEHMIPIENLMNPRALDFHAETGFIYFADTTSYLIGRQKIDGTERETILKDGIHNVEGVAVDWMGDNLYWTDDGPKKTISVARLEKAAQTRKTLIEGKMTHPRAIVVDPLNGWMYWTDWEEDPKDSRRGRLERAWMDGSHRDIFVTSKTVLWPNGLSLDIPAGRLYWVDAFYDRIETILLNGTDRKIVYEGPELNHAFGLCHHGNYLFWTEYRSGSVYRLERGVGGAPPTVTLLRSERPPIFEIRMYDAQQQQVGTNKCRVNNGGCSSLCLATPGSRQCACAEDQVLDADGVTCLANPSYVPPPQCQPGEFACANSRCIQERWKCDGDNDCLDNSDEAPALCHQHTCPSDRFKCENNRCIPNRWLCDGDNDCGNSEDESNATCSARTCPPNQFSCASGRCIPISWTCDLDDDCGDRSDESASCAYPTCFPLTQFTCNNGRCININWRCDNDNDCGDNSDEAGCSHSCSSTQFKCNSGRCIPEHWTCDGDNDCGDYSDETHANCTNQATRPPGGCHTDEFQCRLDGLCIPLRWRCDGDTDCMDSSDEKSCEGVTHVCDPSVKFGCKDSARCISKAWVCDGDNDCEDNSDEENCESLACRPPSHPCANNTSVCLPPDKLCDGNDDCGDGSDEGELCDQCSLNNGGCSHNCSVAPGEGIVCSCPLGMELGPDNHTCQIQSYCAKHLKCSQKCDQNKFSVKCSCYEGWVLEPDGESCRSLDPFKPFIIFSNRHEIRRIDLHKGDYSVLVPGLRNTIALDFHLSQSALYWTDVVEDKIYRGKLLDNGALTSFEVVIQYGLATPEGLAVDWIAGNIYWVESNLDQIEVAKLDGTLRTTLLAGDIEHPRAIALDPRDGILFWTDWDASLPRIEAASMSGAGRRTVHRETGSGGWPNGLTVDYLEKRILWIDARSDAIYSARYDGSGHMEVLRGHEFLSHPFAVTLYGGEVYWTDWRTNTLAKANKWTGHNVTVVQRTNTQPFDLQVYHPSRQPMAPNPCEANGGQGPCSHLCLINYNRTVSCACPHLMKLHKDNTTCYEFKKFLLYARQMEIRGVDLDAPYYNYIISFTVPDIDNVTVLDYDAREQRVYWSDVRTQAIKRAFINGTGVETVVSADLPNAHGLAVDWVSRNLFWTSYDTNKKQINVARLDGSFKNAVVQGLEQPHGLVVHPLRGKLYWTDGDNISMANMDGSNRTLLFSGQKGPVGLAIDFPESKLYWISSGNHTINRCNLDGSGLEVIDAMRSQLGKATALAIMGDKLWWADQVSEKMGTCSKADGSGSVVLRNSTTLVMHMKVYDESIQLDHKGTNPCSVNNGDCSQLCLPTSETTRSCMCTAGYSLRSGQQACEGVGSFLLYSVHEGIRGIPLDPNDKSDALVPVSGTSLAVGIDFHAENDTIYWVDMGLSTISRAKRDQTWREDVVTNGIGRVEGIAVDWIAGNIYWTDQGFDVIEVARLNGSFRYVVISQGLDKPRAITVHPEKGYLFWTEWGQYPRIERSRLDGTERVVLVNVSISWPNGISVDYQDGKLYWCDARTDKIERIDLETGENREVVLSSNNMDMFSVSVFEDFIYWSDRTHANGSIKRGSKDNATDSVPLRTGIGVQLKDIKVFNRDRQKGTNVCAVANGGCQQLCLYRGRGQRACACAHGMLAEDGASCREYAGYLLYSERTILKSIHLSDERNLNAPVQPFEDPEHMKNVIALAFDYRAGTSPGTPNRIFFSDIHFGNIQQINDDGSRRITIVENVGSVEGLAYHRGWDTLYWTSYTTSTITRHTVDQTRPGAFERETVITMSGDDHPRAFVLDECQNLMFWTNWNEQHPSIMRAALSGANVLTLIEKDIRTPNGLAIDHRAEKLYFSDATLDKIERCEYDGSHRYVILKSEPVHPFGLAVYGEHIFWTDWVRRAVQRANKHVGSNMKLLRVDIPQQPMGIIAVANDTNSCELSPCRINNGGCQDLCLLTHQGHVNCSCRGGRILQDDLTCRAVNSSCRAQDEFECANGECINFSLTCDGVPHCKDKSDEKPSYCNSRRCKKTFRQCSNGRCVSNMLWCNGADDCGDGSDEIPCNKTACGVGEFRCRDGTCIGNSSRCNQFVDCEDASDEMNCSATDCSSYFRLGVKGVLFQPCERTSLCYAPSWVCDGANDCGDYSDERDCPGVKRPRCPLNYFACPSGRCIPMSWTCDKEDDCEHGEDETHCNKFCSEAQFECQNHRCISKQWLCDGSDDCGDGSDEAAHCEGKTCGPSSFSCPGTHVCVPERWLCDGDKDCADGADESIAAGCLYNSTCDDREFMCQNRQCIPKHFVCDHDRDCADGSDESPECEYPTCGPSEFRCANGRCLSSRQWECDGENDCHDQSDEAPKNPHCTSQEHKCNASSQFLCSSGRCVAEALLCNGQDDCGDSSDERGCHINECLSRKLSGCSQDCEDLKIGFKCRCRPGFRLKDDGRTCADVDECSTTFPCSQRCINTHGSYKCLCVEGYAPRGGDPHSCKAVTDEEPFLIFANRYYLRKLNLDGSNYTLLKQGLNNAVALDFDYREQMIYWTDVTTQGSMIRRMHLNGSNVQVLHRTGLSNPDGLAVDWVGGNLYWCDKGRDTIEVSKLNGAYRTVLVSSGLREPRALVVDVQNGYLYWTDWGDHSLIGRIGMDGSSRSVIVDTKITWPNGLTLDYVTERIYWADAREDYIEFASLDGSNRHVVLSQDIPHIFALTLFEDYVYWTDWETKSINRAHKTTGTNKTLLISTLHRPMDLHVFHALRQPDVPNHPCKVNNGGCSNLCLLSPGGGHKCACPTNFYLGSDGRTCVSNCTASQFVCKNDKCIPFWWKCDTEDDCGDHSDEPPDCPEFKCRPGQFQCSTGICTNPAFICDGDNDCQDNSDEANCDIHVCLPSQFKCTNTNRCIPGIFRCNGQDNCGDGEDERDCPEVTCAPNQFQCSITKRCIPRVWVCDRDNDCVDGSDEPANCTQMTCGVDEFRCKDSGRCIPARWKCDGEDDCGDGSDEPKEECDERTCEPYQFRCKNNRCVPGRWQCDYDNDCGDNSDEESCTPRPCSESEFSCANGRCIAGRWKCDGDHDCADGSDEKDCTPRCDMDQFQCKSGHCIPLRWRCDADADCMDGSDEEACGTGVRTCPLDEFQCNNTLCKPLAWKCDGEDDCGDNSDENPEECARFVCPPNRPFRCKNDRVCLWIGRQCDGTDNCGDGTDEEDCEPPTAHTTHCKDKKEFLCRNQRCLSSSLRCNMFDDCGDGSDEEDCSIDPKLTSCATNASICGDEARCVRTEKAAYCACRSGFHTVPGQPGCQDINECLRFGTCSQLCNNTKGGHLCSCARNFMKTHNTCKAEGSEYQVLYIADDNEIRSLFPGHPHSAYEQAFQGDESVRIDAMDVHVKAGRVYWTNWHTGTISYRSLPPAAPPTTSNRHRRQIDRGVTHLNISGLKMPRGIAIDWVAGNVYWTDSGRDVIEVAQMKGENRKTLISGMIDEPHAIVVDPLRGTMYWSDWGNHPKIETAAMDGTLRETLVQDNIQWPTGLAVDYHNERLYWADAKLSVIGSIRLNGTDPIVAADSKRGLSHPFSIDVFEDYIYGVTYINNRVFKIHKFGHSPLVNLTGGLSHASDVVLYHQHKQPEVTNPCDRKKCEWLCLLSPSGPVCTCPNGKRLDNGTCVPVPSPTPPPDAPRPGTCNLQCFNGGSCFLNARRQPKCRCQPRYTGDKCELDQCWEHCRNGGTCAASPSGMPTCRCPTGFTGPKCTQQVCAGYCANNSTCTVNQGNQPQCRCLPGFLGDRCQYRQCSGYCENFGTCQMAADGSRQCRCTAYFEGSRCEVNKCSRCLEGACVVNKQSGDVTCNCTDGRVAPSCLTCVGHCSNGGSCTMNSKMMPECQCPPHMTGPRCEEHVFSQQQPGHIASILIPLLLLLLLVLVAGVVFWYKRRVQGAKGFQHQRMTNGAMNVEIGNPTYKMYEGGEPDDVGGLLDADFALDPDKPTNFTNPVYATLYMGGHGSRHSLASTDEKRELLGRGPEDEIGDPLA
T4 sequence (P28070 46-264 limits assumed): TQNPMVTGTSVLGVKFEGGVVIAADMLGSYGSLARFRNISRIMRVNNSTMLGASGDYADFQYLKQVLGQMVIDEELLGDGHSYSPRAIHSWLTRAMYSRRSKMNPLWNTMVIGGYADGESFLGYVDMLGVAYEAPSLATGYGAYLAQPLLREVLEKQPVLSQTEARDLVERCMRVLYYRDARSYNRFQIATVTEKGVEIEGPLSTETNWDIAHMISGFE

co-IP mass spectrometry count (RPS3A): 12
co-IP mass spectrometry count (RPL30): 8
co-IP mass spectrometry count (FKBP10): 0
co-IP mass spectrometry count (RPS15): 7
co-IP mass spectrometry count (RPS5): 4
co-IP mass spectrometry count (RPL14): 11
co-IP mass spectrometry count (PRDX1): 8
co-IP mass spectrometry count (RPL24): 4
co-IP mass spectrometry count (PRDX2): 9
co-IP mass spectrometry count (RPS9): 2
B1: N-terminal FLAG tagged B3GNT2 (enzyme, human, UniProt Q9NY97 1-397, looked up)
chain: MSVGRRRIKLLGILMMANVFIYFIMEVSKSSSQEKNGKGEVIIPKEKFWKISTPPEAYWNREQEKLNRQYNPILSMLTNQTGEAGRLSNISHLNYCEPDLRVTSVVTGFNNLPDRFKDFLLYLRCRNYSLLIDQPDKCAKKPFLLLAIKSLTPHFARRQAIRESWGQESNAGNQTVVRVFLLGQTPPEDNHPDLSDMLKFESEKHQDILMWNYRDTFFNLSLKEVLFLRWVSTSCPDTEFVFKGDDDVFVNTHHILNYLNSLSKTKAKDLFIGDVIHNAGPHRDKKLKYYIPEVVYSGLYPPYAGGGGFLYSGHLALRLYHITDQVHLYPIDDVYTGMCLQKLGLVPEKHKGFRTFDIEEKNKNNICSYVDLMLVHSRKPQEMIDIWSQLQSAHLKC
notes: FLAG-tagged ORF overexpressed in cells; bait of the co-IP, pulled down with mouse anti-FLAG; also called N-FLAG B3GNT2; N-term FLAG; not shown: N-terminal FLAG tag

co-IP mass spectrometry count (PSMB4): 0
co-IP mass spectrometry count (PSMC2): 0
co-IP mass spectrometry count (ERP29): 0
co-IP mass spectrometry count (PSMA5): 0
B2: C-terminal FLAG tagged B3GNT2 (enzyme, human, UniProt Q9NY97 1-397, looked up)
chain: MSVGRRRIKLLGILMMANVFIYFIMEVSKSSSQEKNGKGEVIIPKEKFWKISTPPEAYWNREQEKLNRQYNPILSMLTNQTGEAGRLSNISHLNYCEPDLRVTSVVTGFNNLPDRFKDFLLYLRCRNYSLLIDQPDKCAKKPFLLLAIKSLTPHFARRQAIRESWGQESNAGNQTVVRVFLLGQTPPEDNHPDLSDMLKFESEKHQDILMWNYRDTFFNLSLKEVLFLRWVSTSCPDTEFVFKGDDDVFVNTHHILNYLNSLSKTKAKDLFIGDVIHNAGPHRDKKLKYYIPEVVYSGLYPPYAGGGGFLYSGHLALRLYHITDQVHLYPIDDVYTGMCLQKLGLVPEKHKGFRTFDIEEKNKNNICSYVDLMLVHSRKPQEMIDIWSQLQSAHLKC
notes: Bait of the co-IP; pulled down from cell lysate with mouse anti-FLAG antibody; also called C-FLAG B3GNT2; C-term flag; not shown: C-terminal FLAG tag

co-IP mass spectrometry count (CAPZA1): 0
co-IP mass spectrometry count (RPS7): 8
co-IP mass spectrometry count (LRP1): 0
co-IP mass spectrometry count (PIP): 3
co-IP mass spectrometry count (PCBP1): 4
co-IP mass spectrometry count (TGM3): 5
co-IP mass spectrometry count (RPS12): 8
B3: C-terminal FLAG tagged B3GNT2 (enzyme, human, UniProt Q9NY97 1-397, looked up)
chain: MSVGRRRIKLLGILMMANVFIYFIMEVSKSSSQEKNGKGEVIIPKEKFWKISTPPEAYWNREQEKLNRQYNPILSMLTNQTGEAGRLSNISHLNYCEPDLRVTSVVTGFNNLPDRFKDFLLYLRCRNYSLLIDQPDKCAKKPFLLLAIKSLTPHFARRQAIRESWGQESNAGNQTVVRVFLLGQTPPEDNHPDLSDMLKFESEKHQDILMWNYRDTFFNLSLKEVLFLRWVSTSCPDTEFVFKGDDDVFVNTHHILNYLNSLSKTKAKDLFIGDVIHNAGPHRDKKLKYYIPEVVYSGLYPPYAGGGGFLYSGHLALRLYHITDQVHLYPIDDVYTGMCLQKLGLVPEKHKGFRTFDIEEKNKNNICSYVDLMLVHSRKPQEMIDIWSQLQSAHLKC
notes: FLAG-tagged ORF overexpressed in cells; bait of the co-IP, pulled down with mouse anti-FLAG; also called C-FLAG B3GNT2; C-term flag; not shown: C-terminal FLAG tag
